We go through 4 variants from IntAct's records for PubMed 17070842.

The chains are these.
B1: Signal-regulatory protein beta-1 (Homo sapiens), O00241 (parent)
chain: MPVPASWPHLPSPFLLMTLLLGRLTGVAGEDELQVIQPEKSVSVAAGESATLRCAMTSLIPVGPIMWFRGAGAGRELIYNQKEGHFPRVTTVSELTKRNNLDFSISISNITPADAGTYYCVKFRKGSPDDVEFKSGAGTELSVRAKPSAPVVSGPAVRATPEHTVSFTCESHGFSPRDITLKWFKNGNELSDFQTNVDPAGDSVSYSIHSTARVVLTRGDVHSQVICEIAHITLQGDPLRGTANLSEAIRVPPTLEVTQQPMRAENQANVTCQVSNFYPRGLQLTWLENGNVSRTETASTLIENKDGTYNWMSWLLVNTCAHRDDVVLTCQVEHDGQQAVSKSYALEISAHQKEHGSDITHEAALAPTAPLLVALLLGPKLLLVVGVSAIYICWKQKA
B2: Tyrosine-protein phosphatase non-receptor type substrate 1 (Homo sapiens), P78324-4 (parent)
chain: MEPAGPAPGRLGPLLCLLLAASCAWSGVAGEEELQVIQPDKSVLVAAGETATLRCTATSLIPVGPIQWFRGAGPGRELIYNQKEGHFPRVTTVSDLTKRNNMDFSIRIGNITPADAGTYYCVKFRKGSPDVEFKSGAGTELSVRAKPSAPVVSGPAARATPQHTVSFTCESHGFSPRDITLKWFKNGNELSDFQTNVDPVGESVSYSIHSTAKVVLTREDVHSQVICEVAHVTLQGDPLRGTANLSETIRVPPTLEVTQQPVRAENQVNVTCQVRKFYPQRLQLTWLENGNVSRTETASTVTENKDGTYNWMSWLLVNVSAHRDDVKLTCQVEHDGQPAVSKSHDLKVSAHPKEQGSNTAAENTGSNERNIYIVVGVVCTLLVALLMAALYLVRIRQKKAQGSTSSTRLHEPEKNAREITQDTNDITYADLNLPKGKKPAPQAAEPNNHTEYASIQTSPQPASEDTLTYADLDMVHLNRTPKQPAPKPEPSFSEYASVQVPRK

In one test the parent is B1. The conditions noted are these: with cd47_human CD47, Q08722.
Target sequence in this assay (Q08722 whole entry): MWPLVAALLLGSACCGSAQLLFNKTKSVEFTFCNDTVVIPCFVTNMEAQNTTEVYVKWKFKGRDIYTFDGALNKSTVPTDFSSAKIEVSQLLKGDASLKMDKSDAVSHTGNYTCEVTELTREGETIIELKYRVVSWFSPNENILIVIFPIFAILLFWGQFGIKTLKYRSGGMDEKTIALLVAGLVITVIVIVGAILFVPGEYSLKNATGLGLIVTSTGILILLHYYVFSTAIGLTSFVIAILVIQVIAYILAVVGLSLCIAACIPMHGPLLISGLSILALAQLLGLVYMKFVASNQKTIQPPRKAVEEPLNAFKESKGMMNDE
M56V;M66Q;L101M: the “effect of a mutation on the interaction” value was “causing an interaction”. For M56V;M66Q;A73P, the “effect of a mutation on the interaction” value is listed as “causing an interaction”. The same measure, in the same setting: the result for M56V;M66Q reads “causing an interaction”.

The next test covers variants of B2. The conditions noted are these: with cd47_human CD47, Q08722.
Target sequence in this assay (Q08722 whole entry): as above
Take A57M: the “effect of a mutation on the interaction” value was “disrupting interaction strength”.
